Earlier results as cited in publication PMC5934386.
Where two headings read alike, the source gives them in different places.

Experiments:
Ubiquitin (Homo sapiens) [1] = target: Ubiquitin (Homo sapiens) (UniProt P0CG47)
Ubiquitin (Homo sapiens) [2] = target: Ubiquitin (Homo sapiens) (UniProt P0CG47); assay: NMR

Chain of E2-25K UBA (P61086 157-200): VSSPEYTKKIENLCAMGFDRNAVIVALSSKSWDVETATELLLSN
Chain of yeast E2-25K (P21734 whole entry): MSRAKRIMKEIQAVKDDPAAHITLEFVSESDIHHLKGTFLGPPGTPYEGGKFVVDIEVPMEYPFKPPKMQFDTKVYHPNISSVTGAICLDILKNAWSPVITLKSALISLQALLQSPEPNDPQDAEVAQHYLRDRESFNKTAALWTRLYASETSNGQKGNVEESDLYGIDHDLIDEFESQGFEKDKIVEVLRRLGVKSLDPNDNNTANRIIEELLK

| Substance | Kd (Ubiquitin (Homo sapiens) [1]) | Kd (Ubiquitin (Homo sapiens) [2]) |
| --- | --- | --- |
| E2-25K UBA (from UniProt P61086) | 1200 µM |  |
| yeast E2-25K (from UniProt P21734) |  | 228 µM |
